This is an account of results in the RNAGym collection of RNA variant scans (doi:10.7554/elife.80360).

First the molecules themselves.
B1: HDV Ribozyme (parent)
chain: GGCCGGCAUGGUCCCAGCCUCCUCGCUGGCGCCGGCUGGGCAACAUUCCGAGGGGACCGUCCCCUCGGUAAUGGCGAAUGGGACCCA

In the series the parent is B1. In words: self-cleavage, relative activity (ratio to wild type); higher = more cleavage; co-transcriptional.
With G28C C49A, the self-cleavage was determined as 0.166.

Regarding U46C G68U, the self-cleavage came to 0.719.

C62G U65C: the self-cleavage was 0.427.

On to C15G C41G, for which the self-cleavage worked out at 0.289.

As for U69G C75G, the self-cleavage is 0.199.

In the case of G59A C61A, the self-cleavage is 1.02.

Take C4G G82C: the self-cleavage is 0.

As for G29C G35U, the self-cleavage came to 0.0554.

In the case of U37A G68U, the self-cleavage is 0.0845.

U12A C58G: the self-cleavage turned out to be 0.383.

For U37C C48U, the self-cleavage was found to be 1.14.

With G76C A87G, the self-cleavage is 1.08.

G31U G82C: the self-cleavage amounted to 0.136.

With G5C G80C, the self-cleavage came to 0.17.

With C15G A43G, the self-cleavage is 0.237.

Consider G80U C85A, for which the self-cleavage is 0.288.

In the case of C24U G68C, the self-cleavage came to 0.456.

For the variant A43G G55C, the self-cleavage was found to be 0.743.

As for C61G U65A, the self-cleavage came to 0.639.

In the case of A45G U47C, the self-cleavage was 0.787.

With U60G G74C, the self-cleavage is 0.443.

Consider G55A G82A, for which the self-cleavage worked out at 0.324.

As to C13U G73C, the self-cleavage is 0.123.

Consider U20A G52A, for which the self-cleavage is 0.0415.

For the variant A77G, the self-cleavage was determined as 0.887.

As for U12C G17A, the self-cleavage amounted to 0.312.

Take A16C C49U: the self-cleavage is 0.617.

Regarding G25U C75G, the self-cleavage was found to be 0.128.

For C30G U60G, the self-cleavage worked out at 0.0386.

Turning to G29U G52A, the self-cleavage is 0.168.

For G55C C64A, the self-cleavage amounted to 0.855.

Regarding U20A U69A, the self-cleavage amounted to 0.

With A70C A71U, the self-cleavage was found to be 0.791.

For the variant C64A C66A, the self-cleavage was 0.573.

As to U60A G73U, the self-cleavage was found to be 0.475.

Regarding G52C A87G, the self-cleavage worked out at 0.985.

On to A77C G82A, for which the self-cleavage stood at 0.358.

For G35C G81U, the self-cleavage was determined as 0.0739.

On to G39A A56C, for which the self-cleavage amounted to 0.447.

With G10U C61U, the self-cleavage amounted to 0.684.

Consider G6U C58G, for which the self-cleavage stood at 0.628.

Take G29C A77G: the self-cleavage came out at 0.135.

On to U65C A78C, for which the self-cleavage was determined as 0.293.

Regarding C18A U27G, the self-cleavage is 0.115.

Take G28A A56C: the self-cleavage came out at 0.

A43G C44U: the self-cleavage was 0.884.

Turning to U27A G81C, the self-cleavage was found to be 0.356.

With G34A A87G, the self-cleavage came out at 0.159.

Regarding C48U G53U, the self-cleavage amounted to 0.923.

In the case of G67U A78U, the self-cleavage was 0.253.

For G6C C18U, the self-cleavage came out at 0.0923.

G17C G81A: the self-cleavage was determined as 0.0978.

Take A42G C66G: the self-cleavage was determined as 0.538.

Regarding C24G G81A, the self-cleavage was found to be 0.0332.

With G5A U60G, the self-cleavage stood at 0.

For G53C C86U, the self-cleavage amounted to 0.799.

Take G50C C58U: the self-cleavage turned out to be 1.04.

Take C64A A87U: the self-cleavage is 0.71.

Turning to G11C U69C, the self-cleavage came out at 0.317.

On to C4G G54U, for which the self-cleavage stood at 0.464.

Regarding C21U A51G, the self-cleavage worked out at 0.228.

With G25U C85G, the self-cleavage turned out to be 0.0755.

On to A45C C61U, for which the self-cleavage is 0.796.

As for C44A G59A, the self-cleavage was 0.762.

As to C13U G34A, the self-cleavage amounted to 0.0875.

Regarding C36U C41G, the self-cleavage is 0.45.

In the case of G35C G39U, the self-cleavage turned out to be 0.0302.

Regarding C21A U79G, the self-cleavage stood at 0.0396.

Consider C58G C64A, for which the self-cleavage is 0.855.

For the variant G2A U27C, the self-cleavage is 0.125.

G5U G59A: the self-cleavage stood at 0.529.

As to G50A A71G, the self-cleavage came to 0.991.

G6C G50C: the self-cleavage was determined as 0.554.

With U37A A43U, the self-cleavage was found to be 0.0437.

Regarding G35C G40A, the self-cleavage is 0.271.

For the variant U20C G76U, the self-cleavage was 0.17.

On to C19G C36U, for which the self-cleavage was 0.0767.

Consider C18A G34U, for which the self-cleavage was determined as 0.0489.

A42U C57A: the self-cleavage was determined as 0.575.

Take U69C U72A: the self-cleavage came out at 0.499.

C33G G68U: the self-cleavage was found to be 0.173.

With C3G G81C, the self-cleavage was determined as 0.0831.

On to G31U C48G, for which the self-cleavage amounted to 0.543.

As for C26G C61G, the self-cleavage is 0.811.

Regarding U23C C61A, the self-cleavage was found to be 0.982.

As for C30G C75U, the self-cleavage amounted to 0.0755.

Take G39U G40A: the self-cleavage stood at 0.807.

For C19A C33G, the self-cleavage was 0.0475.

On to C21U U47G, for which the self-cleavage amounted to 0.185.

For C7U C75A, the self-cleavage is 0.177.

G28A U69C: the self-cleavage was determined as 0.0361.

Turning to C21G U72G, the self-cleavage was found to be 0.0462.

On to C21U C62U, for which the self-cleavage worked out at 0.317.

As to C4U G81C, the self-cleavage came to 0.135.

For G10U G40A, the self-cleavage was found to be 0.745.

On to C41A A70C, for which the self-cleavage stood at 0.527.

C3U C22U: the self-cleavage came out at 0.525.

In the case of U37G A42U, the self-cleavage worked out at 0.

As for C36U G54C, the self-cleavage is 0.872.

C7U G59U: the self-cleavage came to 0.812.

In the case of G1C A45C, the self-cleavage was determined as 0.145.

Consider G68A C75A, for which the self-cleavage stood at 0.164.

For G5C G59U, the self-cleavage is 0.128.

On to A71G C84A, for which the self-cleavage came out at 1.02.

Take U37A G82U: the self-cleavage came to 0.166.

For A70U G73C, the self-cleavage is 0.332.

For C4A G10C, the self-cleavage is 0.141.

Regarding G2A A70G, the self-cleavage worked out at 0.0511.

With G10C A56U, the self-cleavage stood at 0.957.

For G17U C30A, the self-cleavage was found to be 0.831.

Consider G68C G74A, for which the self-cleavage turned out to be 0.362.

For G39C A71C, the self-cleavage came to 0.0978.

With U60C U69A, the self-cleavage is 0.802.

Consider G73A A83C, for which the self-cleavage came out at 0.198.

Take U20C G68C: the self-cleavage came out at 0.192.

For A45G U69A, the self-cleavage came to 0.895.

Regarding C19A G67A, the self-cleavage was determined as 0.0941.

Turning to C26G A78C, the self-cleavage is 0.

Regarding G25A C62G, the self-cleavage is 0.151.

In the case of C26A G31A, the self-cleavage is 0.818.

Turning to G10A G25C, the self-cleavage was 0.0639.

Consider G68C, for which the self-cleavage is 0.911.

On to G29C C66A, for which the self-cleavage is 0.0475.

As to C32G A42U, the self-cleavage turned out to be 0.0594.

Take G52A A83C: the self-cleavage is 0.374.

On to G1A G35C, for which the self-cleavage was determined as 0.0723.

With C22G C44A, the self-cleavage stood at 0.0426.

As for G5U A83G, the self-cleavage was 0.0573.

G29A C36U: the self-cleavage came out at 0.0264.

U23G U65C: the self-cleavage turned out to be 0.864.

In the case of G5U G55C, the self-cleavage stood at 0.465.

In the case of G34U A83C, the self-cleavage is 0.133.

For the variant C24A G25U, the self-cleavage stood at 0.277.

Consider G35A G50U, for which the self-cleavage amounted to 0.629.

As for G59C G74U, the self-cleavage is 0.531.

U72C G80A: the self-cleavage was 0.138.

Regarding U47A U72C, the self-cleavage was 0.688.

As to C44A A45C, the self-cleavage is 0.692.

In the case of C18G C33A, the self-cleavage worked out at 0.

As for C22U G52A, the self-cleavage was determined as 0.709.

Consider A16G G67A, for which the self-cleavage amounted to 0.886.

For U9C A45U, the self-cleavage was determined as 0.554.

On to G10C U79C, for which the self-cleavage was determined as 0.132.

As to G17A C75G, the self-cleavage was found to be 0.0773.

For G11C U65C, the self-cleavage was determined as 0.297.

On to A8C G55A, for which the self-cleavage was 0.636.

Turning to G31A G59U, the self-cleavage amounted to 0.383.

On to G6U, for which the self-cleavage is 0.63.

Consider A8C C62U, for which the self-cleavage was determined as 0.918.

With C24U C75U, the self-cleavage turned out to be 0.197.

Take C22U A87U: the self-cleavage came to 0.644.

In the case of G50A C62A, the self-cleavage came out at 0.694.

For the variant G6C A77G, the self-cleavage amounted to 0.0791.

C18G C86U: the self-cleavage was found to be 0.0875.

As to A16C U60C, the self-cleavage was 0.369.

For the variant A8G C18G, the self-cleavage was 0.

For C14G A51U, the self-cleavage was 0.791.

As for G1A C18G, the self-cleavage worked out at 0.

For G34C G54C, the self-cleavage turned out to be 0.295.

In the case of C18A C19A, the self-cleavage was found to be 0.128.

For G39A A45G, the self-cleavage was 0.629.

With A8U G81U, the self-cleavage was determined as 0.175.

Turning to G55A C64G, the self-cleavage was 0.962.

Consider C24A C66A, for which the self-cleavage was found to be 0.764.

For the variant G2U A51C, the self-cleavage stood at 0.0528.

Regarding G6U G28C, the self-cleavage is 0.0739.

As for C22G U65C, the self-cleavage was determined as 0.0997.
